In a protein production outcome set (Wang et al. 2014):

Test: label from the status in PepcDB records

| Sequence | protein production |
| --- | --- |
| MKETTKKIVSKRLTKVVALVLMCVICTSGVITVTALSRDVTVLDGDKMYGLTTLNANPDAVLDRLGIEVSPEDSIEFDEAAAKITIKRAFDVTVEVDGKAKTVTMTEGTVADALEASKVDLKEGDQVVPFAATSLVPDMEIKVARGVEVTVEADGKSVKVKVPVTATVEAAVAAADFTVGKDDVLSAEKTDTVSAGMTIKLDRVSYRETETTQEIPYESTQEETGELDLGDTQVKTAGENGARTIVTREKLVNGQVVETEEISSTVVKEPVNEVLLVGTREVETAPSYGAASTSGGVLVDHDGNQIAYTAVYTGSATAYTAPAGSFTATGRPAQYGNVAVNPDLIPYGSRLYICSPDGSYVYGYAVAADTGGALMSGSALVDVYFDTLSECYGFGRRTLSVYILA | failed |
| MKFALQINEGPYQHQASDSAYQFAKAALEKGHEIFRVFFYHDGVNNSTRLTTPPQDDRHIVNRWAELAEQYELDMVVCVAAAQRRGIVDEGEASRNGKDATNIHPKFRISGLGQLVEAAIQADRLVVFGD | not failed |
| MKFDDSKPIYKQIVHYIHTEIVTGTYEAGDKLLSVRELATKLEVNPTTIQRAYAELEEAGIIFTVRGTGKYLTEDKRRIEQLENHIAKQLTENFISEMSKLGINKEKIIAWVKKVEEVEVNASGK | failed |
| MKFDVIIIGGSYAGLSAALQLGRARKNILLVDAGERRNRFASHSHGFLGQDGKAPGEIIAEARRQIERYPTIHWVEGRVTDAKGSFGEFIVEIDGGRRETAGRLILAMGVTDELPEIAGLRERWGSAVFHCPYCHGYELDQGKIGVIAASPMAIHHALMLPDWGETTFFTNGIVEPDADQHALLAARGVRVETTRIREIAGHADVVLADGRSIALAGLFTQPKLRITVDWIEKLGCAVEEGPMGSTIVTDPMKQTTARGIFACGDVARPAGSVALAVGDGAMAGAAAHRSILFPEMR | not failed |
| MKFFFLLQIALILLSNSSLLFGQSPPKEKEDSLLLYKEGKFKEAILNTLEEIRLNPSNLDARTILIWSLIAIGEYKRAEKEAIIGLGIKKHDIRIIQALGEAYFFQKNYDNALKYFQEYISLDSKGARIIKVYNLIADSFYELKRYNEADFAYEHALRFSPNNQNLLIKLARSRINAKNKILAEEALIKILTISPNNLEAKNLLEELKKSNNKP | failed |
| MKFGPRRPADAIGGVTVHSLRQNGLLLKKGTTIGPAEVAALEKAGIAEIVVVQLEPGDVSEDVAAADVAGAVAGDGITVDRAFTGRANLFAGRTGVLVIDRAVVDRINAVDEAITLATLPAFKPVVEGEMVATVKLIPFGVESRLRDAAVAAAQGSALRVAPYVIKRVGVVSTLLPGLAPKVIDKTLRVTAERLAPAGAEIIAERRVAHEEAALSAAIKELLGLGADMVIVFGASAIADRRDVIPAAIGTVGGTISHFGMPVDPGNLLLVGSVSGVPVLGAPGCARSPVENGFDWVLMRLLAGLTVTRADITAMGVGGLLMEIVTRPQPRVPVAESGRNVAAIVLAAGRGTRMGGPNKLLADLNGKPLVRIVAEQALASQAARTIIVTGHQAGEVEAALYGLDLTFVHNPDFAQGIASSVKTGIAALGEDADGAIVCLGDMPLIDAALIDRMITAFDPDRGALIVVPVAEGRRGNPVLWSRRFFTELMTLGGDVGARHLIAKHGEAVTEVPVEGEAAFLDIDTPQALDEARRG | failed |
| MKFISTSLLLMLLVSSLSPVQGVLEVYYTSLRCRCVQESSVFIPRRFIDRIQILPRGNGCPRKEIIVWKKNKSIVCVDPQAEWIQRMMEVLRKRSSSTLPVPVFKRKIP | failed |
| MKFKTNKLSLNLVLASSLLAASIPAFAVTGDTDQPIHIESDQQSLDMQGNVVTFTGNVIVTQGTIKINADKVVVTRPGGEQGKEVIDGYGKPATFYQMQDNGKPVEGHASQMHYELAKDFVVLTGNAYLQQVDSNIKGDKITYLVKEQKMQAFSDKGKRVTTVLVPSQLQDKNNKGQTPAQKKGN | not failed |
| MKFLDNIKKNQSLMRFIETTQSHMVTAEIGNSSVVVAYYLLLSLFPLLIAVGNVLPYLRIDPNSVLPYIAEAIPKDVYKNLEPAIRSLLTQRSGGLLSVSALAAFWSASQSINALQNAMNKAFGVEQRKNFILVRVVSFLVILLFMVAIVGVVVILGLGQYIIELLQPIFHYSTSVIDTFQALKWPLTTVVLLVIMCLIYAVVPNRKLSLRSILPGAIFSTVGWMLLSQIFGLYVKYFSSRIASYQIIGSFIILMLWLNFAATIIILGAIVNAVVDEYLSGDKEKKQPSFEQRLFRWFKKKK | failed |
| MKFSFHTCESNYFKDPFFYIMLSISILFSYLFSYYTILKYVSLNATAYDLGIYVSILENTMHGHVMYANPLLINSFSEHFSPFLFVIYPIYWFFPYVKTLLIMQSVMISFSGLVIYLLAREIFFINNFKKDILLEMLALFISTSYILSPYIESPLSFDFHLMPFLILFVPLSFYFFMKKYKILNLIVLILIISLHSLFVIMVFFIISYQFIFRIRNEGNLNCHKIIRTIANINISDNLKKTPKSKYVLQKIVRSKTLIKIIITLILLVGYLYFASLMKTFIASGAVALSPPSTMSTGSVSSSLAGLFTDLFTRPMLIESAFLINFPDKIIFAFYAFANTGFLVFLDPLSLLMDIPYFLYAYLSSYGPYYSLGYQYSTMIIPFIFIGALFGIRKIVQSARATDSDDVRRTIKKILVGVISIVIVSSLFELPLDPISPRNIFIESGSMANFHEFAYNNGSEIAFELQKEIGESDPYLLTINNLYPVFAKDTNAYVIAFAWNSQLRNLIYGYHIEYLVNQPDSFWSNQFNPSMNDLIDNNTFISHYGVYMESFGQDGVIVYKLNYTGLPVLMIPYSAYLPATSFYIAAGEYNYSIVNGSYVYHNTTMGTAWFGPYTTLLPGRYNITYYLESVNSEANSSILLDVTTNAGTVTLNQTVINSSELPNGDLEEVTLHLTLNETKYSVEFRGMAIDWTGTLIFKGVKYSVY | failed |
| MKFSVLMSLYVKEQPAFLAECLASLTAQSYPADEIVILYDGKVTAELEVVVQQYAPILPLKQVRFAENRGLGNTLNDGLKYCSHEWVFRMDSDDICDVDRFAKQVAFIQQHPDVVVFGGQIAEFGQNVQDIVAYRAVPTTHQQIVKFSRFRCPFNHMTVAYQKSKVLAVGGYQGLQEDYTLWIKMIASGFLTANLTDVLVYARVGNGMVGRRRNFTQFKYEWQLYRLKTQAKLHSRIVGLGIFALRAIPRILPLAILQRIYKLLRK | failed |
| MKFSYKFSNLLGTIYRNGNLVFTPDGNSVISPVGNRITVYDLKNNKSRTLSLESRYNYTNIALSPDGSLLIAVNEKGEAQLISMMSCTVIHRHKFQTGVQCICFSPNGAFFAVAVQNVVLIFCAPGEITGEYNPFVLRRRFLGGFDDVTWLDWSSDSRLLAIGCRDSSTKIVAINYTKNFRTYNLSGHTDAIVACFFEANSLHLNTISRNGQLCLWECSLAPSDLEDAERPKIAPPQRKKEKKAVSDNESEDDVENVVEKDALKEESTKEAEDVNHIKNEDETKSHPFFYKKITRHYLADEPRKEQRDVQLTAANYNTRTKVLVVAFSSGAFYLYELPDVNMIHSLSISDYPISAALFNCTGDWVALASREIGQLLVWEWQSEQYIMKQQGHSSEMTCIAYSSDGQFIATGGEDSKVKLWNTQSSFCFVTFSEHTSGVTGIQFSRNKKFLVSSSLDGTVRAFDVNRYRNFRTFTSPNPAQFSCVAVDYSGELVVAGGQDVFDIFLWSVKTGKLLEIISGHEGPVVSIAFSPVATSSTLVSGSWDKTVKIWNCLESNSEHETIDAVSDVTNVTFSPSGEEIAVATLSGNITIFDIKSAGQVTTIEGRNDLSAGRLETDIITARKNAQANYFSTIEYSADGECILAAGKSANICIYHVREAILLKKFEITQNHSLDGLNDFISRKHLSEFGNMALVEEREELEGGRVAIRLPGVQRGDMSSRRFQQEVRVFSVKFSPTGQAFAAAGTEGLCIYALDKGVVFDPFDLSLEVTPKAVHESLKQQNYTKALVMSLKLNEPNLIALVLERVPYKDVELVCADLSPEFAQRLLQQLARQLQSTPHIEFYLQWSCCLLTKHGNQDGVFQHTGLLALHEVLSRKYEMLNKICDYNKYTLKVLLDRADKLEQKNEGKPNATEEDSDEEMLLIRSKDDENGQAQFSDEEESDSGSEEEMA | failed |
